Laboratory results published in patent publication US20230240988A1, “FLUID GEL COMPOSITIONS” (The University of Birmingham, priority 2020, published 2023).

How the values were obtained:
fibrin gel = assay: Matrix breakdown assay; assay type: biochemical; conditions: 60° C.; images at various timepoints
Description: • Add proteinase K (10 mg) to PBS to make a total volume of 1 ml. • Mix well on a vortex mixer until dissolved.
• Add 0.9 ml of 3% v/v PEG-DA fluid gel prepared according to Example 5.3 to an Eppendorf. • To each gel add 0.1 ml of active in PBS. • Mix well using a vortex mixer. • Refrigerate for 24 hours before testing.
0.5 ml of fibrin gel (8.5 mg/ml) was formed in the wells of a 24 well plate. • 0.5 ml of PBS was added to each well. • 0.1 ml of fluid gel containing active was added to a trans-well insert and placed above the fibrin gel. • Samples were incubated at 60° C. to activate the proteinase K. • Images were taken at various timepoints and compared to (a) the control wells containing only fibrin gel+PBS; and (b) wells containing fibrin gel+proteinase k (no fluid gel carrier).

[1] = Release assay of active agents from PEG-DA fluid gel (trans-well, UV/Vis); assay type: physicochemical; conditions: 3% v/v PEG-DA fluid gel (500 rpm), PBS 37° C., 5 hrs
Description: • Active amounts: […] • Standard concentrations of active in PBS were prepared. • Standards were pipetted into a quartz cuvette (1 mm pathlength). • […] spectroscopy was used to measure absorbance between 200 and 700 nm wavelength. • Curves were plotted and used to determine standard curves which were used to determine concentrations. • 0.5 ml PBS was added to the well of a 24 well plate. • The PBS was incubated at 37° C. to equilibrate. 0.1 ml of the fluid gel containing active was placed in a trans-well insert. • The trans-well insert was placed into a well containing PBS. • After a given time period the trans-well insert was removed and placed in a fresh well of PBS. • The release media was then removed and analysed using […] spectroscopy. Concentrations were derived from the standard curves and cumulative release plotted as a function of time.

B1: Proteinase K: extracellular matrix remodelling agent, proteinase (protein, UniProt P06873 106-384, looked up)
Proteinase K: AAQTNAPWGLARISSTSPGTSTYYYDESAGQGSCVYVIDTGIEASHPEFEGRAQMVKTYYYSSRDGNGHGTHCAGTVGSRTYGVAKKTQLFGVKVLDDNGSGQYSTIIAGMDFVASDKNNRNCPKGVVASLSLGGGYSSSVNSAAARLQSSGVMVAVAAGNNNADARNYSPASEPSVCTVGASDRYDRRSSFSNYGSVLDIFGPGTSILSTWIGGSTRSISGTSMATPHVAGLAAYLMTLGKTTAASACRYIADTANKGDLSNIPFGTVNLLAYNNYQA
Fibrin gel
  fibrin gel break down: faster
[1]
  release of active agent from fluid gel: able to release
